Assay results from US7947279B2, “Peptide having hydrolase activity” (The Trustees of Columbia University in the City of New York, priority 2005, dated 2011).
Entries after “also recorded” stand apart in the source; their conditions may differ.

Assays:
[1] = system: CA1-LTP in hippocampal slices; test: CA1-LTP in hippocampal slices (theta-burst); format: cell-based, mouse; conditions: for Aβ-induced impairment of CA1-LTP (words): fusion protein 20 nM 1 hr, then plus Aβ 200 nM 20 min; for LTP in slices not treated with Aβ (words): fusion protein 20 nM, 3 theta-burst trains
[2] = system: BST at the Schaffer collateral/CA1 connection of hippocampal slices; test: Basal synaptic transmission (BST) in hippocampal slices; format: cell-based, mouse; conditions: for BST in WT slices (words): fusion protein 20 nM 1 hr or Aβ 200 nM 20 min, alone
mice (WT and APP/PS1) = test: Contextual and cued fear conditioning; format: in vivo, mouse; conditions: for contextual freezing of APP/PS1 mice 1 day after training: 0.02-0.04 g/kg i.p. 4 hrs before training, 3-5 month-old
Description: Behavioral Studies: Fear conditioning was performed in a conditioning chamber as previously described (Bourtchuladze et al., 1994; Gong et al., 2004). For contextual and cued fear conditioning mice were placed in the conditioning chamber for 2 min before the onset of a discrete tone (CS) (a 30 sec sound at 2800 Hz and 85 dB). In the last 2 sec of the CS, mice were given a foot shock (US) of 0.50 mA for 2 sec through the bars of the floor. After the CS/US pairing, the mice were left in the conditioning chamber for another 30 sec and then placed back in their home cages. Freezing behavior, defined as the absence of all movement except for that necessitated by breathing, was scored using Freezeview software. To evaluate contextual fear learning, freezing was measured for 5 min in the chamber in which the mice were trained 24 hrs after training. To evaluate cued fear conditioning, following contextual testing, the mice were placed in a novel context (triangular cage with smooth flat floor and with vanilla odorant) for 2 min (pre-CS test), after which they were exposed to the CS for 3 min (CS test), and freezing was measured. To evaluate the contextual fear over time, mice were placed for 5 min in the chamber in which the mice were trained 7- 14- 21-days after training. Sensory perception of the shock was determined through threshold assessment. Each animal was placed individually into the conditioning chamber. […] Animal behavior was evaluated for the first visible response to the shock (flinch), the first extreme motor response (run/jump), and the first vocalized distress (scream). Threshold to flinching, jumping, and screaming was quantified for each animal by averaging of the shock intensity at which each animal manifested a behavioral response of that type to the foot shock. Visual, motor, and motivation skills were also tested with visible platform training by measuring the time and the speed to reach a visible platform placed within a pool filled with water (Gong et al., 2004). Both time to reach the platform and swimming speed were recorded and analyzed with a video tracking system (HVS-2020, HVS Image, UK). No difference was observed among different groups of mice in the experiments in which fear conditioning was tested both in the presence of LDN and TAT fusion proteins. To decide the time of administration of LDN, experiments were performed in which the inhibitor was injected intra-peritoneally at different intervals (4 hrs before, 1 hr before, 1 hr after and 4 hrs after) from the electric shock. During the training phase, no difference was found in the freezing of LDN- or vehicle-injected mice.

[3] = system: SY5Y neuroblastoma cells transfected with a degron CL1-GFP expression vector; test: Proteasome reporter assay (GFP^u); format: cell-based, human; conditions: fusion protein 20 nM with Aβ
In short: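 SH-SY5Y neuroblastoma cells stably expressing GFP fused to CL1 degron (GFP^u) in DMEM with 15% FBS. After treatment, GFP^u levels quantified by densitometry of anti-GFP immunoblots of total extracts (10 ug/lane), normalized to ERK.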

phospho-CREB at Ser-133 = test: Phospho-CREB (Ser-133) Western blot in hippocampal cultures; format: cell-based, rat
In short: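 Rat E18 hippocampal neurons cultured serum-free to 5 DIV, lysed in RIPA (pH 7.4, with phosphatase and protease inhibitors). Lysates resolved by SDS-PAGE and immunoblotted with anti-pCREB, HRP detection; band intensities quantified by densitometry and normalized to total ERK1/2.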

[4] = 20 nM, 1 hr, listed as TAT-Uch-L1 fusion protein
[5] = 12-18 month APP/PS1 slices, 20 nM 1 hr
[6] = listed as TAT-HA-Uch-L1 peptide
[7] = listed as Uch-L1 fusion protein

B1: TAT-HA-Uch-L1: fusion protein: 11-amino acid transduction domain of HIV-transactivator protein (TAT) fused with an HA tag and human Uch-L1 (protein)
chain: MQLKPMEINPEMLNKVLSRLGVAGQWRFVDVLGLEEESLGSVPAPACALLLLFPLTAQHENFRKKQIEELKGQEVSPKVYFMKQTIGNSCGTIGLIHAVANNQDKLGFEDGSVLKQFLSETEKMSPEDRAKCFEKNEAIQAAHDAVAQEGQCRVDDKVNFHFILFNNVDGHLYELDGRMPFPVNHGASSEDTLLKDAAKVCREFTEREQGEVRFSAVALCKAA
modifications: left off: small tags and cut ends
In the case of B1, the “LTP in slices from 4 month-old APP/PS1 mice” value ([1]; 20 nM, 1 hr) is reported as “far greater potentiation; also recorded: elevated above vehicle treated slices; also recorded: completely reversed”, the “LTP in slices from 4 month-old WT mice” value ([1]; 20 nM, 1 hr) is reported as “did not change the amplitude of LTP; also recorded: had no effect on LTP amplitude” and the “LTP in slices from 12-18 month-old APP/PS1 mice” value ([1]; 20 nM, 1 hr) is reported as “greater potentiation; also recorded: had a beneficial effect; also recorded: reversed the impairment of LTP”. For the same molecule, the “LTP in slices from 12-18 month-old WT mice” value ([1]; 20 nM, 1 hr) was “did not change the amplitude of LTP; also recorded: did not vary the amounts of potentiation; also recorded: did not affect LTP”, the “LTP in slices from 12-18 month-old APP/PS1 mice” value [1, 4] was “reverses the decrease of LTP” and the “LTP in slices from 12-18 month-old WT mice” value [1, 4] was “does not affect LTP”. For the same molecule, the “Levels of LTP at 120 minutes after tetanus” value (“Levels of LTP at 120 minutes” for short) ([1]; 4 month APP/PS1 slices, 20 nM 1 hr) was “about 94 % those of TAT-HA-treated WT littermates”, the “Levels of LTP at 120 minutes” value ([1]; 4 month WT slices, 20 nM 1 hr) was “about 98 % those of vehicle-treated WT slices” and the “levels of LTP” value [1, 5] was “about 82 % that of TAT-HA-treated WT littermates”. The “Levels of LTP at 120 minutes” value ([1]; 12-18 month WT slices, 20 nM 1 hr) was 98.5 % of those of TAT-HA-treated WT slices, the “rescue of LTP at different concentrations, S18Y versus TAT-HA-Uch-L1 (words)” value ([1]; 1 hr pre-treatment, then Aβ 200 nM 20 min, as low as 5 nM) was “No difference was detected; also recorded: no difference between the two forms” and the “LTP induced by weak tetanus” value ([1]; WT slices, 1 theta-burst train instead of 3) was “enhanced LTP; also recorded: increases LTP”. The “Aβ-induced impairment of CA1-LTP (words)” value [1] was “protected against LTP suppression; also recorded: completely reversed”, the “Aβ-induced impairment of CA1-LTP (words)” value [1, 6] was “protected against LTP suppression” and the “Aβ-induced impairment of CA1-LTP (words)” value ([1]; listed as TAT-Uch-L1 fusion protein) was “reversed; also recorded: rescued”. For the same molecule, the “Aβ-induced impairment of CA1-LTP (words)” value [1, 7] was “reverses the deficits of LTP”, the “LTP in slices not treated with Aβ (words)” value ([1]; 1 hr, WT slices) was “did not change the amplitude of LTP; also recorded: had no effect on LTP; also recorded: did not affect the amounts of potentiation; also recorded: did not affect LTP” and the “LTP in slices not treated with Aβ (words)” value ([1]; 1 hr, WT slices, listed as Uch-L1 fusion protein) was “does not affect”. The “baseline transmission in slices without tetanic stimulation” value ([1]; non-tetanized slices) was “did not modify the baseline; also recorded: had no effect on basal synaptic responses; also recorded: did not affect baseline transmission; also recorded: did not affect basal transmission; also recorded: Neither TAT-HA-Uch-L1 nor TAT-HA-iUch-L1 affected baseline transmission”, the “BST in slices from 12-18 month-old APP/PS1 mice” value ([2]; 20 nM, 1 hr) was “also improved; also recorded: improved BST” and the BST [2, 5] was “about 94 % that of TAT-HA-treated WT mice”. For the same molecule, the “BST in WT slices (words)” value [2] was “did not reveal any significant difference among treatments; also recorded: does not affect CA1-BST”, the “BST in WT slices (words)” value [2, 7] was “does not affect” and the “contextual freezing of APP/PS1 mice 1 day after training” value (mice (WT and APP/PS1)) was “failed to re-establish normal freezing; also recorded: does not improve learning the day after training”. The “contextual freezing of APP/PS1 mice 1 day after training” value (mice (WT and APP/PS1); listed as TA-HA-Uch-L1) was “failed to re-establish normal freezing”, the “freezing responses of WT mice” value (mice (WT and APP/PS1); 0.02-0.04 g/kg i.p., listed as TA-HA-Uch-L1) was “had no effect” and the “freezing responses of WT mice” value (mice (WT and APP/PS1); 0.02-0.04 g/kg, i.p.) was “did not change the freezing time; also recorded: had no effect”. For the same molecule, the “contextual freezing of APP/PS1 mice at 7, 14 and 21 days after training” value (mice (WT and APP/PS1); single injection 0.02-0.04 g/kg i.p. 4 hrs prior to training) was “greatly increased the freezing time; also recorded: improves the retention of contextual fear conditioning; also recorded: re-established normal freezing time”, the “Aβ-induced increase of GFP^u” value [3] was “reversed” and the “Aβ-induced increase of GFP^u” value [3, 6] was “blocked the increase of GFP^u”. For the same molecule, the “effect of Aβ on glutamate-induced CREB phosphorylation (words)” value (phospho-CREB at Ser-133; fusion protein 100 nM, 3 μM Aβ 24 hrs, 50 μM glutamate 15 min) was “totally blocked the effect of Aβ on CREB phosphorylation; also recorded: re-established; also recorded: completely opposed” and the “levels of phospho-CREB” value (phospho-CREB at Ser-133; fusion protein alone, no glutamate) was “did not affect levels of phospho-CREB”.
